In article PMC4197815:

Molecular target: NL2HA-S714A (human) (UniProt Q8NFZ4)
Assay: co-IP

Chain of UniProt Q8NFZ4 (Q8NFZ4 15-835, stated change not applied): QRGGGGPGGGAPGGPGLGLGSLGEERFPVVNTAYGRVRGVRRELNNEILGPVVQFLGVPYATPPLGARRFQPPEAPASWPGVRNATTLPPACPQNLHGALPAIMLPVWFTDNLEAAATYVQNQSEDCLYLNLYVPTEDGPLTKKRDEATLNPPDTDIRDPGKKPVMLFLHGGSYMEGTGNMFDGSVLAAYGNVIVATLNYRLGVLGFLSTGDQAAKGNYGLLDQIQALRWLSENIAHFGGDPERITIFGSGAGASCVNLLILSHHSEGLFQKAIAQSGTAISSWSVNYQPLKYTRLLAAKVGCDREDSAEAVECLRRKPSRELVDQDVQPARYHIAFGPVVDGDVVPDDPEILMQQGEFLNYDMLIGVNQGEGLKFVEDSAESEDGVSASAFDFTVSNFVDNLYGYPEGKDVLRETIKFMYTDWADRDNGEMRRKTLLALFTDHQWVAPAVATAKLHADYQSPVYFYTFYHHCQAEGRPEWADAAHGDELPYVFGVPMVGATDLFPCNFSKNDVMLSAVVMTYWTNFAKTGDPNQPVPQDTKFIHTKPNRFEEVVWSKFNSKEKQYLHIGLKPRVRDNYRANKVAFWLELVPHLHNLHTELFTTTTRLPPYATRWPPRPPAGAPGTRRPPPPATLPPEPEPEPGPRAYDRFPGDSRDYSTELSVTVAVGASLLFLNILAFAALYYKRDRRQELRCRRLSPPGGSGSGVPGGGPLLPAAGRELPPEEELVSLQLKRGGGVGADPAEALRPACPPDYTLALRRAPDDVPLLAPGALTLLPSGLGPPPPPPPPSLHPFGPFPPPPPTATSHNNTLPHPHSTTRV

B1: gephyrin-FLAG (natural protein)
chain: MATEGMILTNHDHQIRVGVLTVSDSCFRNLAEDRSGINLKDLVQDPSLLGGTISAYKIVPDEIEEIKETLIDWCDEKELNLILTTGGTGFAPRDVTPEATKEVIEREAPGMALAMLMGSLNVTPLGMLSRPVCGIRGKTLIINLPGSKKGSQECFQFILPALPHAIDLLRDAIVKVKEVHDELEDLPSPPPPLSPPPTTSPHKQTEDKGVQCEEEEEEKKDSGVASTEDSSSSHITAAALAAKIPDSIISRGVQVLPRDTASLSTTPSESPRAQATSRLSTASCPTPKVQSRCSSKENILRASHSAVDITKVARRHRMSPFPLTSMDKAFITVLEMTPVLGTEIINYRDGMGRVLAQDVYAKDNLPPFPASVKDGYAVRAADGPGDRFIIGESQAGEQPTQTVMPGQVMRVTTGAPIPCGADAVVQVEDTELIRESDDGTEELEVRILVQARPGQDIRPIGHDIKRGECVLAKGTHMGPSEIGLLATVGVTEVEVNKFPVVAVMSTGNELLNPEDDLLPGKIRDSNRSTLLATIQEHGYPTINLGIVGDNPDDLLNALNEGISRADVIITSGGVSMGEKDYLKQVLDIDLHAQIHFGRVFMKPGLPTTFATLDIDGVRKIIFALPGNPVSAVVTCNLFVVPALRKMQGILDPRPTIIKARLSCDVKLDPRPEYHRCILTWHHQEPLPWAQSTGNQMSSRLMSMRSANGLLMLPPKTEQYVELHKGEVVDVMVIGRL
B1 gave an increase of co-precipitated gephyrin-FLAG against NL2HA of 140%.
